Residue numbers refer to the chain shown, from its start.
B1: 9G9 (VHH)
VHH: EVQLLESGGGEVQPGGSLRLSCVASGLTFSSYNTGWLRQAPGKEREFVGLSGSSSTSTYYAESVKGRFTISRDNAKNTVYLQMTSLRAEDTAVYYCAARRLLSTYWSDRSWDFWGQGTLVTVEP
notes: also called hzB10v40 VHH, CDR1 site 9 M to T
B2: 9H9 (VHH)
VHH: B1 VHH with T34F
notes: also called hzB10v40 VHH, CDR1 site 9 M to F
B3: 33-2A2 (VHH)
VHH: B1 VHH with T34M, L102K
B4: 39C11 (VHH)
VHH: B1 VHH with T34M, D108M
B5: 32F11 (VHH)
VHH: B1 VHH with T34M, L101R
B6: 10E3 (VHH)
VHH: B1 VHH with T34M, G35S
notes: also called hzB10v40 VHH, CDR1 site 10 G to S
B7: 39E11 (VHH)
VHH: B1 VHH with T34M, D108H
B8: 33-2C4 (VHH)
VHH: B1 VHH with T34M, L102F
B9: 28H1 (VHH)
VHH: B1 VHH with T34M, A97S
B10: 35G3 (VHH)
VHH: B1 VHH with T34M, T104R
B11: 10G10 (VHH)
VHH: B1 VHH with T34M, G35A
notes: also called hzB10v40 VHH, CDR1 site 10 G to A
B12: 44C1 (VHH)
VHH: B1 VHH with T34M, F113M
B13: 44A11 (VHH)
VHH: B1 VHH with T34M, F113K
B14: 33-2C5 (VHH)
VHH: B1 VHH with T34M, L102H

These binders were tested against T1, human IgE (human, UniProt P01854 1-428) (assay: ELISA, clone lysate on IgE-coated plate).
T1 construct: written under the same molecule; also called IgE (Abcam ab65866); soluble IgE
T1 sequence (P01854 other isoform, or with tags, fused parts or gaps limits assumed, form in doubt): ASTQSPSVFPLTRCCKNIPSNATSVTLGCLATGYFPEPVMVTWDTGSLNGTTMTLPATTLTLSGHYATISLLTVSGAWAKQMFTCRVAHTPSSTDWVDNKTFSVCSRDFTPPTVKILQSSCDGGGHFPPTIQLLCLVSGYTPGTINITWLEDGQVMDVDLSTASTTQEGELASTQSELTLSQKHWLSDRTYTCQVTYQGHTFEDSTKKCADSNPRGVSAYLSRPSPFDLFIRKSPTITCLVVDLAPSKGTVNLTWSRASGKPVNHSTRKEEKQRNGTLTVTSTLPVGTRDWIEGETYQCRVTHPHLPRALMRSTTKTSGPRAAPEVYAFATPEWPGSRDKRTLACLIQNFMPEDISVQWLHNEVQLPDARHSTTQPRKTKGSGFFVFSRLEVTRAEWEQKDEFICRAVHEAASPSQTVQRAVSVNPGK
From the text: Each amino acid in CDR1 (SEQ ID NO:3), CDR2 (SEQ ID NO:68), and CDR3 (SEQ ID NO:74) was randomly replaced such that the 20 natural amino acids would likely all have been sampled at every position. The expression vector for the VHH containing the mutagenized CDRs was then transfected into E. coli, and at least 96 clones were randomly chosen for each position mutated in each CDR. This gives likely coverage of all potential mutations at each position since the probability to get any given amino acid at that position is 5%. […] The heat maps represent the relative binding for each clone determined by the range of OD values from the ELISA background to WT CDR binding (FIGS. 16A-16C). Site numbering for each residue tested is indicated by the inset tables in FIGS. 16A-16C.
With B1 the “Confirm OD450 Duplicate1” value was 0.535, the “Confirm OD450 Duplicate2” value was 0.524 and the “R1 Screening OD450” value was 0.886. In the case of B2, the “Confirm OD450 Duplicate1” value is reported as 0.49, the “Confirm OD450 Duplicate2” value is reported as 0.5 and the “R1 Screening OD450” value is reported as 0.88. B3 was tested, and the “Confirm OD450 Duplicate1” value was 0.557, the “Confirm OD450 Duplicate2” value was 0.564 and the “R1 Screening OD450” value was 1.01. B4 was tested, and the “Confirm OD450 Duplicate1” value was 0.562, the “Confirm OD450 Duplicate2” value was 0.585 and the “R1 Screening OD450” value was 1. With B5 the “Confirm OD450 Duplicate1” value was 0.557, the “Confirm OD450 Duplicate2” value was 0.557 and the “R1 Screening OD450” value was 0.924. B6 was tested, and the “Confirm OD450 Duplicate1” value was 0.508, the “Confirm OD450 Duplicate2” value was 0.494 and the “R1 Screening OD450” value was 0.846. With B7 the “Confirm OD450 Duplicate1” value was 0.55, the “Confirm OD450 Duplicate2” value was 0.534 and the “R1 Screening OD450” value was 1.01. With B8 the “Confirm OD450 Duplicate1” value was 0.514, the “Confirm OD450 Duplicate2” value was 0.523 and the “R1 Screening OD450” value was 1. B9 was tested, and the “Confirm OD450 Duplicate1” value was 0.471, the “Confirm OD450 Duplicate2” value was 0.492 and the “R1 Screening OD450” value was 0.927. With B10 the “Confirm OD450 Duplicate1” value was 0.593, the “Confirm OD450 Duplicate2” value was 0.612 and the “R1 Screening OD450” value was 1.07. In the case of B11, the “Confirm OD450 Duplicate1” value is reported as 0.484, the “Confirm OD450 Duplicate2” value is reported as 0.479 and the “R1 Screening OD450” value is reported as 0.966. B12 was tested, and the “Confirm OD450 Duplicate1” value was 0.556, the “Confirm OD450 Duplicate2” value was 0.537 and the “R1 Screening OD450” value was 1.06. B13 was tested, and the “Confirm OD450 Duplicate1” value was 0.661, the “Confirm OD450 Duplicate2” value was 0.654 and the “R1 Screening OD450” value was 1.14. With B14 the “Confirm OD450 Duplicate1” value was 0.525, the “Confirm OD450 Duplicate2” value was 0.573 and the “R1 Screening OD450” value was 1.01.

Reference: patent publication US20250163186A1 (PHYLAXIS BIOSCIENCE, published 2025)
